According to patent US20210115149A1 (ABVISION, published 2021):

B1: Anti-human CD40 mAb clone #1E10-H2 (antibody, V domains shown)
VH: QVQLQQSGAELMKPGASVKISCKATGYTFSSYWIEWIKQRPGHVLEWIGEILPGSGSANYNERFKGKATFTADTSSNTAYMQLTSLTSEDSAVYYCARLRYYGSSPWFAYWGQGTLVTVSA
VL: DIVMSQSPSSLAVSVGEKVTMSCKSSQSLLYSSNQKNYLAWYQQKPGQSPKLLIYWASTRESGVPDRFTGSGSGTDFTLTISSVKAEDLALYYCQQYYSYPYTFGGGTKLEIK
notes: Mouse hybridoma monoclonal antibody (Balb/c), purified; also called anti-human CD40 agonistic mAb (clone #1E10-H2)
B2: Anti-human CD40 mAb clone #2G9-B11 (antibody, mouse IgG1, V domains shown)
VH: EVQLVESGGGLVKPGGSLKLSCAASGFSFSSYAMSWVRQTPEKRLEWVATISSGGDYTYYPDSVKGRFTISRDNAKNTLYLQMTSLRSEDTAMYYCARRNHFTYWGQGTLVTVSA
VL: DIVMTQSHKFMSTSVGDRVSITCKASQDVVTSVAWYQQKPGQSPKLLIYWTSTRHTGVPDRFTGSGSGTDFTLTISNVQSEDLADYFCQQYSSYPLTFGAGTKLELK
notes: Mouse hybridoma monoclonal antibody (Balb/c), purified; also called anti-CD40 2G9-B11

Target: human CD40 protein (human, UniProt P25942 21-193, limits assumed)
Sequence (P25942 21-193 limits assumed): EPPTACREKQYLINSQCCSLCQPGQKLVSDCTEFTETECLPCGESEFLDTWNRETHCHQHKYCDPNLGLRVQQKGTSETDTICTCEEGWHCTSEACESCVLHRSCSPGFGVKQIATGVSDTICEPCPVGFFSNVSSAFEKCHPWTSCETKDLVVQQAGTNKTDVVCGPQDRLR
Assay: ELISA screening of hybridoma wells against human CD40 protein
Procedure: Antibodies were created by electrofusion of human CD40-immunized mouse splenocytes (Balb/c strain) with SP2/0-A14 cells (ATCC) (Immunization procedure; dose, adjuvants, time course). Fused cells were seeded into 96-well plates and ELISA screening was conducted to identify wells that contain antibodies which interact with the human CD40 protein. Positive wells were further expanded and followed a limited dilution to isolate monoclonal hybridomas. Purified antibodies were used to test their ability to trigger CD40 signaling by an in-house created reporter system. Basically, an engineered 293T cell line was transduced to stably express the human CD40 protein. When testing the agonistic functions of CD40 antibodies, DNA plasmids of an NF-kB-driven luciferase reporter and Fc-gamma receptors were transiently transfected into established CD40-293T cells. Antibodies to be tested were added to the culture and incubated for 24 hours. Treated cells were harvested, lysed and analyzed on a plate reader for the activity of luciferase. Anti-human CD40 mAb clone #1E10-H2 and clone #2G9-B11 were tested binding to and activating human CD40. The sequences of the IgG heavy chain and light chain variable domains of anti-human CD40 agonistic mAb clone #1E10-H2 are shown in FIG. 1.

Binder	binding result
B1	binds
B2	binds
